Patent US20190203229, “cis AND trans REQUIREMENTS FOR […] RESOLUTION OF HUMAN BOCAVIRUS 1” (University of Iowa Research Foundation, published 2019)

Target: GST (UniProt P08515 P08515:1-218)
Experiment: EMSA; negative control
Details: label: 32P or biotin

Sequence of GST (P08515 whole entry, one chain of several): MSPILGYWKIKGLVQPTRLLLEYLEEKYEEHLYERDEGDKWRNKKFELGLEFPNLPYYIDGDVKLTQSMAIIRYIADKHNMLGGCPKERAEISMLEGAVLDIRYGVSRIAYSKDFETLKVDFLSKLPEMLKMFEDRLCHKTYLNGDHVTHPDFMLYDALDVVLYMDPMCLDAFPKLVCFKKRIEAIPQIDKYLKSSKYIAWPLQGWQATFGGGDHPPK

B1: B19V Ori (dsDNA)
DNA 1: GCCGCCGGTCGCCGCCGGTAGGCGGGACTTCCGGTACA
DNA 2: TGTACCGGAAGTCCCGCCTACCGGCGGCGACCGGCGGC
binding result: no binding
